According to patent CN117460529A (dated 2024):
Blank lines part the entries; values can stand above or below the binder they belong to.

Assays:
细胞表面上表达的人ICOS [1] = biological target: T1, 细胞表面上表达的人ICOS (human, UniProt Q9Y6W8 21-199); test: flow cytometry on CHO-S cells expressing ICOS, purified IgG1
T1 construct: whole, on cells; also called hICOS; human ICOS on CHO-S cells
T1 sequence (looked up): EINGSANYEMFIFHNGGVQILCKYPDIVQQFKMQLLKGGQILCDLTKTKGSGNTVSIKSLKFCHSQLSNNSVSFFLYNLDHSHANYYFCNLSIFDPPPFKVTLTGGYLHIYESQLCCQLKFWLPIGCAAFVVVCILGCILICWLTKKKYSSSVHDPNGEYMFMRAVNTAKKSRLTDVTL

CHO-S细胞表面上表达的小鼠ICOS [2] = biological target: T2, CHO-S细胞表面上表达的小鼠ICOS (mouse, UniProt Q9WVS0 21-200); test: as above
T2 construct: whole, on cells; also called mICOS; mouse ICOS on CHO-S cells
T2 sequence (looked up): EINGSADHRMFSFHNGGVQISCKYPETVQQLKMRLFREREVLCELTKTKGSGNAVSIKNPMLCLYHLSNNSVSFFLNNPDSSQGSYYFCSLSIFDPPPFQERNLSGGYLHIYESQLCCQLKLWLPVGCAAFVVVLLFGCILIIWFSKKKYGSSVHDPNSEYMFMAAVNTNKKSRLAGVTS

细胞表面上表达的人ICOS [3] = biological target: T1, 细胞表面上表达的人ICOS; test: Mirrorball assay on CHO-S cells expressing ICOS; total binding defined by reference antibody, non-specific by hybrid control hIgG1
CHO-S细胞表面上表达的小鼠ICOS [4] = biological target: T2, CHO-S细胞表面上表达的小鼠ICOS; test: as above
小鼠ICOS (HTRF测定) = biological target: T3, 小鼠ICOS (HTRF测定) (mouse, UniProt Q9WVS0 21-144, limits assumed); test: HTRF binding assay, HEK supernatant with human IgG1 antibody
T3 construct: the HTRF construct is described only in US 9,957,323; also called mouse ICOS; mICOS
T3 sequence (looked up): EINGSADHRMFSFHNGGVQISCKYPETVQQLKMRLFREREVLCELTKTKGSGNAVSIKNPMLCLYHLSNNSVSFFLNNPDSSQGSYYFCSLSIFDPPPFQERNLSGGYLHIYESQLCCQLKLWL

人ICOS (HTRF测定) = biological target: T4, 人ICOS (HTRF测定) (human, UniProt Q9Y6W8 21-140, limits assumed); test: as above
T4 construct: the HTRF construct is described only in US 9,957,323; also called human ICOS; ICOS受体
T4 sequence (looked up): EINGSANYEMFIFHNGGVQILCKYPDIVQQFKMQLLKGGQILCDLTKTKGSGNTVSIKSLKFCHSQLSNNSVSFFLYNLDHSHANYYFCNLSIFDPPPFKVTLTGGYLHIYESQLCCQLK

细胞表面上表达的人ICOS [5] = biological target: T1, 细胞表面上表达的人ICOS; test: receptor occupancy on patients' CD4 memory T cells, chip cytometry

fold over negative control (几何平均值) (细胞表面上表达的人ICOS [1]): > 10 倍
fold over negative control (几何平均值) (CHO-S细胞表面上表达的小鼠ICOS [2]): > 10 倍
作用 (% effect) (细胞表面上表达的人ICOS [3]): > 1%
作用 (% effect) (CHO-S细胞表面上表达的小鼠ICOS [4]): > 1%
作用 (% effect, 等式1) (小鼠ICOS (HTRF测定)): > 5%
作用 (% effect, 等式1) (人ICOS (HTRF测定)): > 5%
B1: CL-61091 (antibody, V domains shown)
VH: QVQLMQSGTEVKKPGASVKVSCKTSGYTFTTYGITWVRQAPGQGLEWMGWISAYSGDTDYAQKFQGRVTVTTDTSTNTAYMELRSLKSDDTAVYYCARSSGWPHHYGMDVWGQGTTVTVSS
VL: DIVMTQSPLSLPVTPGEPASISCRSSQSLLHSNGFNYFDWYLQKPGQSPQLLIFLVSNRASGVPDRFSGSGSGTDFTLKISRVEAEDVGIYYCMQALQTPLTFGGGTKVEIK

binding result (细胞表面上表达的人ICOS [5]): binds
B2: STIM003 (antibody, V domains shown)
VH: EVQLVESGGGVVRPGGSLRLSCVASGVTFDDYGMSWVRQAPGKGLEWVSGINWNGGDTDYSDSVKGRFTISRDNAKNSLYLQMNSLRAEDTALYYCARDFYGSGSYYHVPFDYWGQGILVTVSS
VL: EIVLTQSPGTLSLSPGERATLSCRASQSVSRSYLAWYQQKRGQAPRLLIYGASSRATGIPDRFSGDGSGTDFTLSISRLEPEDFAVYYCHQYDMSPFTFGPGTKVDIKR
notes: also called KY1044; SAR445256

fold over negative control (几何平均值) (细胞表面上表达的人ICOS [1]): > 10 倍
fold over negative control (几何平均值) (CHO-S细胞表面上表达的小鼠ICOS [2]): > 10 倍
作用 (% effect) (细胞表面上表达的人ICOS [3]): > 1%
作用 (% effect) (CHO-S细胞表面上表达的小鼠ICOS [4]): > 1%
作用 (% effect, 等式1) (小鼠ICOS (HTRF测定)): > 5%
作用 (% effect, 等式1) (人ICOS (HTRF测定)): > 5%
B3: CL-74570 (antibody, V domains shown)
VH: EVQLVESGGGVIRPGGSLRLSCAASGFTFDDYGMSWVRQAPGKGLEWVSGINWIGDNTDYADSVKGRFTISRDNAKNSLYLQMNSLRAEDTALYYCARDYFGSGSYYNVPF
VL: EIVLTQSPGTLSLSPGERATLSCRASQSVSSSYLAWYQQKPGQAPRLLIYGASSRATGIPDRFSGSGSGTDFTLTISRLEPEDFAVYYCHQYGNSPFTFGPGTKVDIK
